These results are taken from patent CN117866092A (BEIJING KENUO XINCHENG TECH CO LTD, dated 2024).

The target of experiment [1] is T1, 细胞表面人CD73蛋白 (human CD73 on the cell surface) (human, UniProt P21589 27-549).
T1 construct: whole, on cells; Endogenous CD73 on human tumour cell lines; also called 细胞表面CD73; CD73 on BXPC-3, SKOV-3, A375, MDA-MB-231 and A431 cells
T1 sequence (looked up): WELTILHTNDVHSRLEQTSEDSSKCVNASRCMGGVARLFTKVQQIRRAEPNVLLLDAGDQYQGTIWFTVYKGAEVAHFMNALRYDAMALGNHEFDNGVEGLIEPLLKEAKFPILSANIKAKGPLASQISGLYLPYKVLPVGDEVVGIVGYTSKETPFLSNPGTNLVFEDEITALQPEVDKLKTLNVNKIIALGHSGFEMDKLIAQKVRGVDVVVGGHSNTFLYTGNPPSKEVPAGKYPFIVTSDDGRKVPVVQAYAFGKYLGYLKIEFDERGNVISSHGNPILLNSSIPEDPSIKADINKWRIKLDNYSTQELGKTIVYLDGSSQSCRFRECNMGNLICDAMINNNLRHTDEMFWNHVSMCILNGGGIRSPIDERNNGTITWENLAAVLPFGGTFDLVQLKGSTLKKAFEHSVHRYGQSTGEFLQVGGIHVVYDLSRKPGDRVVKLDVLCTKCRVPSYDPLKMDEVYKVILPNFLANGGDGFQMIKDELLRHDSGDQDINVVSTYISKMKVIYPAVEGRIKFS
As to the kind of experiment: flow cytometry on BXPC-3 cells, FITC anti-human IgG. (In general: Flow cytometry measures light scatter and fluorescence of single cells or particles in a stream.)

Experiment [2] concerns the target T2, 人CD73-his重组蛋白(序列号:NM_002526.3，27-547aa) (human, UniProt P21589 27-547).
T2 construct: range 27-547; Transiently expressed in eukaryotic cells; also called rhCD73-his; 重组人CD73-his; not shown: his tag
T2 sequence (looked up): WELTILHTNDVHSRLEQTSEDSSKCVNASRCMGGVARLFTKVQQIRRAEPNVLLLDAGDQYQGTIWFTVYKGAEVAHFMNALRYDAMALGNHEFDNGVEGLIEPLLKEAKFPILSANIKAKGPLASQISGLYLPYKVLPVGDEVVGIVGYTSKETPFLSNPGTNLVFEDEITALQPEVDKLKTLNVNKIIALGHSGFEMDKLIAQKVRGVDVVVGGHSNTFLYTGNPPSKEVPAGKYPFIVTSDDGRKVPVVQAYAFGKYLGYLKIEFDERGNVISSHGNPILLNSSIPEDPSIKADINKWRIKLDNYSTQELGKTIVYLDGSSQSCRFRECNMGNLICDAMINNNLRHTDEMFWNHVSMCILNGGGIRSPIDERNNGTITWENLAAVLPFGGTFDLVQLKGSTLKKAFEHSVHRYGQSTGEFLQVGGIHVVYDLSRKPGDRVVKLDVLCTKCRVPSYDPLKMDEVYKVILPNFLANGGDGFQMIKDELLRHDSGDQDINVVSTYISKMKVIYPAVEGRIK
The experiment is described as follows: BLI (Octet QKe), antibody captured on AHC sensor, 60 nM CD73-his as analyte, 1:1 fit. (Biolayer interferometry detects binding as a change in optical thickness at a sensor tip.)

B1: MEDI9447 (antibody, V domains shown)
VH: EVQLLESGGGLVQPGGSLRLSCAASGFTFSSYAYSWVRQAPGKGLEWVSAISGSGGRTYYADSVKGRFTISRDNSKNTLYLQMNSLRAEDTAVYYCARLGYGRVDEWGRGTLVTVSS
VL: QSVLTQPPSASGTPGQRVTISCSGSLSNIGRNPVNWYQQLPGTAPKLLIYLDNLRLSGVPDRFSGSKSGTSASLAISGLQSEDEADYYCATWDDSHPGWTFGGGTKLTVLG
For orientation: EC50 means the concentration that produces a half-maximal response. The Kd is the constant that tells how readily two partners part at equilibrium. In general, koff refers to the rate constant with which the complex falls apart. Usually kon stands for the rate constant with which the complex forms. Read a high kon as faster complex formation. For B1, in experiment [1], a half-maximal response (EC50) required 0.242 nM. In experiment [2], this molecule yielded an equilibrium dissociation constant (Kd) of 0.635 nM, a koff of 0.000105 s⁻¹ and a kon of 165000 M⁻¹ s⁻¹.
